Laboratory results: patent publication US9937235B2, “Lipidated peptides as anti-obesity agents” (USTAV ORGANICKE CHEMIE A BIOCHEMIE AKADEMIE VED CR, V.V.I, priority 2012, dated 2018)
Where no end group is shown, it is not given here. [ ]: non-standard residue; d: D form. The star is where a group is joined. Palmitoyl = CCCCCCCCCCCCCCCC(=O)*; Myristoyl = CCCCCCCCCCCCCC(=O)*; Lauroyl = CCCCCCCCCCCC(=O)*; Decanoyl = CCCCCCCCCC(=O)*; Nle = CCCC[C@H](N)C(=O)O; Octanoyl = CCCCCCCC(=O)*

B1: analog no. 53 (peptide)
peptide: Decanoyl-TPDINPAWYASRGIRPVGRF-NH2
SMILES: CCCCCCCCCC(=O)N[C@H](C(=O)N1CCC[C@H]1C(=O)N[C@@H](CC(=O)O)C(=O)N[C@H](C(=O)N[C@@H](CC(N)=O)C(=O)N1CCC[C@H]1C(=O)N[C@@H](C)C(=O)N[C@@H](Cc1c[nH]c2ccccc12)C(=O)N[C@@H](Cc1ccc(O)cc1)C(=O)N[C@@H](C)C(=O)N[C@@H](CO)C(=O)N[C@@H](CCCNC(=N)N)C(=O)NCC(=O)N[C@H](C(=O)N[C@@H](CCCNC(=N)N)C(=O)N1CCC[C@H]1C(=O)N[C@H](C(=O)NCC(=O)N[C@@H](CCCNC(=N)N)C(=O)N[C@@H](Cc1ccccc1)C(N)=O)C(C)C)[C@@H](C)CC)[C@@H](C)CC)[C@@H](C)O
B2: analog no. 52 (peptide)
peptide: Octanoyl-TPDINPAWYASRGIRPVGRF-NH2
SMILES: CCCCCCCC(=O)N[C@H](C(=O)N1CCC[C@H]1C(=O)N[C@@H](CC(=O)O)C(=O)N[C@H](C(=O)N[C@@H](CC(N)=O)C(=O)N1CCC[C@H]1C(=O)N[C@@H](C)C(=O)N[C@@H](Cc1c[nH]c2ccccc12)C(=O)N[C@@H](Cc1ccc(O)cc1)C(=O)N[C@@H](C)C(=O)N[C@@H](CO)C(=O)N[C@@H](CCCNC(=N)N)C(=O)NCC(=O)N[C@H](C(=O)N[C@@H](CCCNC(=N)N)C(=O)N1CCC[C@H]1C(=O)N[C@H](C(=O)NCC(=O)N[C@@H](CCCNC(=N)N)C(=O)N[C@@H](Cc1ccccc1)C(N)=O)C(C)C)[C@@H](C)CC)[C@@H](C)CC)[C@@H](C)O
B3: analog no. 54 (peptide)
peptide: Lauroyl-TPDINPAWYASRGIRPVGRF-NH2
SMILES: CCCCCCCCCCCC(=O)N[C@H](C(=O)N1CCC[C@H]1C(=O)N[C@@H](CC(=O)O)C(=O)N[C@H](C(=O)N[C@@H](CC(N)=O)C(=O)N1CCC[C@H]1C(=O)N[C@@H](C)C(=O)N[C@@H](Cc1c[nH]c2ccccc12)C(=O)N[C@@H](Cc1ccc(O)cc1)C(=O)N[C@@H](C)C(=O)N[C@@H](CO)C(=O)N[C@@H](CCCNC(=N)N)C(=O)NCC(=O)N[C@H](C(=O)N[C@@H](CCCNC(=N)N)C(=O)N1CCC[C@H]1C(=O)N[C@H](C(=O)NCC(=O)N[C@@H](CCCNC(=N)N)C(=O)N[C@@H](Cc1ccccc1)C(N)=O)C(C)C)[C@@H](C)CC)[C@@H](C)CC)[C@@H](C)O
B4: analog no. 37 (peptide)
peptide: Myristoyl-[code f][code r]GVPRIGRGTYWAPNIDPT-NH2
B5: analog no. 60 (peptide)
peptide: Myristoyl-SRAHQHSMETRTPDINPAWYTGRGIRPVGRF-NH2
SMILES: CCCCCCCCCCCCCC(=O)N[C@@H](CO)C(=O)N[C@@H](CCCNC(=N)N)C(=O)N[C@@H](C)C(=O)N[C@@H](Cc1c[nH]cn1)C(=O)N[C@@H](CCC(N)=O)C(=O)N[C@@H](Cc1c[nH]cn1)C(=O)N[C@@H](CO)C(=O)N[C@@H](CCSC)C(=O)N[C@@H](CCC(=O)O)C(=O)N[C@H](C(=O)N[C@@H](CCCNC(=N)N)C(=O)N[C@H](C(=O)N1CCC[C@H]1C(=O)N[C@@H](CC(=O)O)C(=O)N[C@H](C(=O)N[C@@H](CC(N)=O)C(=O)N1CCC[C@H]1C(=O)N[C@@H](C)C(=O)N[C@@H](Cc1c[nH]c2ccccc12)C(=O)N[C@@H](Cc1ccc(O)cc1)C(=O)N[C@H](C(=O)NCC(=O)N[C@@H](CCCNC(=N)N)C(=O)NCC(=O)N[C@H](C(=O)N[C@@H](CCCNC(=N)N)C(=O)N1CCC[C@H]1C(=O)N[C@H](C(=O)NCC(=O)N[C@@H](CCCNC(=N)N)C(=O)N[C@@H](Cc1ccccc1)C(N)=O)C(C)C)[C@@H](C)CC)[C@@H](C)O)[C@@H](C)CC)[C@@H](C)O)[C@@H](C)O
B6: analog no. 61 (peptide)
peptide: Palmitoyl-SRAHQHSMETRTPDINPAWYTGRGIRPVGRF-NH2
SMILES: CCCCCCCCCCCCCCCC(=O)N[C@@H](CO)C(=O)N[C@@H](CCCNC(=N)N)C(=O)N[C@@H](C)C(=O)N[C@@H](Cc1c[nH]cn1)C(=O)N[C@@H](CCC(N)=O)C(=O)N[C@@H](Cc1c[nH]cn1)C(=O)N[C@@H](CO)C(=O)N[C@@H](CCSC)C(=O)N[C@@H](CCC(=O)O)C(=O)N[C@H](C(=O)N[C@@H](CCCNC(=N)N)C(=O)N[C@H](C(=O)N1CCC[C@H]1C(=O)N[C@@H](CC(=O)O)C(=O)N[C@H](C(=O)N[C@@H](CC(N)=O)C(=O)N1CCC[C@H]1C(=O)N[C@@H](C)C(=O)N[C@@H](Cc1c[nH]c2ccccc12)C(=O)N[C@@H](Cc1ccc(O)cc1)C(=O)N[C@H](C(=O)NCC(=O)N[C@@H](CCCNC(=N)N)C(=O)NCC(=O)N[C@H](C(=O)N[C@@H](CCCNC(=N)N)C(=O)N1CCC[C@H]1C(=O)N[C@H](C(=O)NCC(=O)N[C@@H](CCCNC(=N)N)C(=O)N[C@@H](Cc1ccccc1)C(N)=O)C(C)C)[C@@H](C)CC)[C@@H](C)O)[C@@H](C)CC)[C@@H](C)O)[C@@H](C)O
B7: analog no. 57 (peptide)
peptide: Palmitoyl-SRTHRHSMEIRTPDINPAWYASRGIRPVGRF-NH2
B8: analog no. 30 (peptide)
peptide: SHQRPADTHWYPRG[Nle]FPTIGRITARNGEVSR
notes: printed without a C-terminal amide
B9: analog no. 56 (peptide)
peptide: Myristoyl-SRTHRHSMEIRTPDINPAWYASRGIRPVGRF-NH2
SMILES: CCCCCCCCCCCCCC(=O)N[C@@H](CO)C(=O)N[C@@H](CCCNC(=N)N)C(=O)N[C@H](C(=O)N[C@@H](Cc1c[nH]cn1)C(=O)N[C@@H](CCCNC(=N)N)C(=O)N[C@@H](Cc1c[nH]cn1)C(=O)N[C@@H](CO)C(=O)N[C@@H](CCSC)C(=O)N[C@@H](CCC(=O)O)C(=O)N[C@H](C(=O)N[C@@H](CCCNC(=N)N)C(=O)N[C@H](C(=O)N1CCC[C@H]1C(=O)N[C@@H](CC(=O)O)C(=O)N[C@H](C(=O)N[C@@H](CC(N)=O)C(=O)N1CCC[C@H]1C(=O)N[C@@H](C)C(=O)N[C@@H](Cc1c[nH]c2ccccc12)C(=O)N[C@@H](Cc1ccc(O)cc1)C(=O)N[C@@H](C)C(=O)N[C@@H](CO)C(=O)N[C@@H](CCCNC(=N)N)C(=O)NCC(=O)N[C@H](C(=O)N[C@@H](CCCNC(=N)N)C(=O)N1CCC[C@H]1C(=O)N[C@H](C(=O)NCC(=O)N[C@@H](CCCNC(=N)N)C(=O)N[C@@H](Cc1ccccc1)C(N)=O)C(C)C)[C@@H](C)CC)[C@@H](C)CC)[C@@H](C)O)[C@@H](C)CC)[C@@H](C)O
B10: analog no. 51 (peptide)
peptide: TPDINPAWYASRGIRPVGRF-NH2

system: fasted C57BL/6 mice; assay: Food intake in fasted mice after SC administration; assay type: in vivo, mouse; settings: fasted C57BL/6 mice, 5 mg/kg SC, 45 min
Experimental: Male C57BL/6 mice (An Lab, Prague 4) were bred in the accredited animal facility in the Institute of Organic Chemistry and Biochemistry, Czech Academy of Sciences, Prague, at the Institute of Molecular Genetics, Prague 4, at the temperature of 22±2° C. with access to food and water ad libitum. The day/night cycle was 12/12 hours (light turned on at 6:00 am). Animals were treated according to the Animal Protection Act (Act No. 246/1992). The males were fed standard chow diet St-1 (Mlýn Kocanda, Praha, Czech Republic) which contained 66% saccharides, 25% proteins and 9% lipids with a caloric value of 3.4 kcal/g.
The food was withdrawn 17 hours prior to injection of lipidated peptide and free access to water was maintained. The administration of saline, PrRP or lipidated analogs was performed either by SC injection at doses of 1-10 mg/kg (volume 0.2 ml/mouse), or by ICV using infusion pump (cannulae were inserted into the third brain ventricle 4 days before the experiment following the procedure of Maixnerová et al. (Maixnerová et al., 2011)). The single dose of peptide was 4 nmol/mouse (5 μl/mouse).
Fifteen minutes after the lipidated peptide administration, the mice were given pre-weighed food. The food was then weighed every 30 minutes for 5-10 hours. The administration of every dose was performed at least twice and one group of mice consisted of at least 6 mice. The results were presented as % of food intake as compared with the control group injected with saline.
Statistical evaluation was performed using program Graph-Pad Prism Software (San Diego, Calif., USA), and the one-way ANOVA with a subsequent Dunnettovým post-hoc test. The difference in food intake between mice injected with saline and mice injected with the examined peptide were considered statistically significant at P<0.05.

Question: How did the “Food intake in mice (5 mg/kg SC) % saline-treated group (45 min)” value turn out when TPDINPAWYASRGIRPVGRF-NH2 [Analog 51] was run?
Answer: 100%

target: T1, human PrRP receptor, GPR10, transfected in CHO cells (human, UniProt P49683 1-370); assay: competition with 125I-human PrRP31 on CHO cells with transfected human GPR10; settings: not given
T1 construct: whole, on cells; also called human GPR10 receptor; the human receptor GPR10 in CHO cells
T1 sequence (looked up): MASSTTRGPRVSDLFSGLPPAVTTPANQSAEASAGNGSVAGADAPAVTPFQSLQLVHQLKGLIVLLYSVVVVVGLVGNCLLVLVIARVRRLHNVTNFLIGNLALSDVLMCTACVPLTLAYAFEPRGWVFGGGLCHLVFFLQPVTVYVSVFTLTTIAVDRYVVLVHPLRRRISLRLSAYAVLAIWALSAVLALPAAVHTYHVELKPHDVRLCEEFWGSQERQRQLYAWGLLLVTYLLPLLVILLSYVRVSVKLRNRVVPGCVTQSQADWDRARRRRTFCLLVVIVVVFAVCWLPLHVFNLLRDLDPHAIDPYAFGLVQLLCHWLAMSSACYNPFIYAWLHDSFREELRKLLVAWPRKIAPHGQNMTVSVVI
Experimental: CHO cells with transfected human PrRP receptor, GPR10 (Perkin Elmer, USA) were grown on 24-well plates coated with polyethyleneimine. The cells were grown to the optimal density of 40-80 thousand cells per well.
(§1) Plates were incubated for 60 minutes at room temperature. After incubation, the cells were solubilized in 0.1 mol/l solution of NaOH and the radioactivity bound to the cells was counted using a γ-counter. The experiments were performed in duplicate and repeated at least three times.

Question: Which Ki does the source give for B1 here?
Answer: 2.41 nM

Question: Which Ki does the source give for B2 here?
Answer: 3.02 nM

Question: For B3, which Ki is on record?
Answer: 2.41 nM

target: T2, rat PrRP receptor in RC-4B/C cells (rat, UniProt Q64121 1-370); assay: competition with 125I-rat PrRP31 on RC-4B/C cells; settings: not given
T2 construct: whole, on cells; also called the rat receptor; GPR10
T2 sequence (looked up): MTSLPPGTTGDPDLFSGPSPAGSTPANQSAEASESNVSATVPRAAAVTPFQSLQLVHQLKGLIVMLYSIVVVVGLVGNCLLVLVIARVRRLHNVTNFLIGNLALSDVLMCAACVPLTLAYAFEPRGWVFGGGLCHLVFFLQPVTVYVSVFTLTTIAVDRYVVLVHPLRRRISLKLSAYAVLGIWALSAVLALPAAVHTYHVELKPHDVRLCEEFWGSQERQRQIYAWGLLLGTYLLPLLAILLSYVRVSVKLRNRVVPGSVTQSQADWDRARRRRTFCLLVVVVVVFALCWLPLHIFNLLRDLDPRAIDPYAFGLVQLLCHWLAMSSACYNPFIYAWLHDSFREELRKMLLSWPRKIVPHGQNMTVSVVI
Experimental: The rat pituitary cell line RC-4B/C (ATCC, Manassas, USA) was grown on 24-well plates which had their bottom coated with polyethyleneimine. The cells were grown to the optimal density of 300-450 thousand per well.
as §1
For evaluation of competitive binding experiments, the program Graph Pad Prism Software (San Diego, Calif., USA) was used. A method of nonlinear regression assuming one-site binding was used.

Question: B4 was tested. Which Ki did it give?
Answer: 0.364 µM

Question: For B5, which Ki is on record?
Answer: 0.00075 µM

Question: Which Ki does the source give for B6 here?
Answer: 0.00041 µM

Question: With B7 as the molecule, how does the Ki read?
Answer: 0.00028 µM

Question: B8 was tested. Which Ki did it give?
Answer: 1320 µM

Question: How did the Ki turn out when B9 was run?
Answer: 0.00095 µM

Question: Which Ki does the source give for B10 here?
Answer: 0.00238 µM
